Tested on: inflamed eye of male albino rabbits
Experiment: In vivo treatment of ocular inflammation induced by arachidonic acid sodium salt
Parameters: species or system rabbit
Conditions: 50 μl given 30 minutes after 0.5% arachidonic acid sodium salt; scored 30-210 minutes
Description: Inflammation in the eye of male albino rabbits as described in Example 7 is induced by applying a drop of eye drops containing 0.5% arachidonic acid sodium salt (SA-irritating agent) at time 0. After 30 minutes, the sample under examination is administered to the inflamed eye. Finally, the ocular inflammation index is evaluated at different time points. In the present test, the samples under examination were: • I) 50 μl of free lactoferrin (not encapsulated into the lipid bilayer of liposomes) dissolved in PBS (comparative example); • II) 50 μl of F2 liposomes.
As positive control (C+-comparative), a rabbit administered with SA at time 0, without any administration after 30 minutes, has been used.
The ocular inflammation has been evaluated for each time point at 30, 60, 90, 120, 150, 180 and 210 minutes and the inflammation index has been consequently calculated for each time point according to the tables of the previous Example.

B1: lactoferrin (protein, UniProt P02788 20-710, looked up)
Lactotransferrin: GRRRSVQWCAVSQPEATKCFQWQRNMRKVRGPPVSCIKRDSPIQCIQAIAENRADAVTLDGGFIYEAGLAPYKLRPVAAEVYGTERQPRTHYYAVAVVKKGGSFQLNELQGLKSCHTGLRRTAGWNVPIGTLRPFLNWTGPPEPIEAAVARFFSASCVPGADKGQFPNLCRLCAGTGENKCAFSSQEPYFSYSGAFKCLRDGAGDVAFIRESTVFEDLSDEAERDEYELLCPDNTRKPVDKFKDCHLARVPSHAVVARSVNGKEDAIWNLLRQAQEKFGKDKSPKFQLFGSPSGQKDLLFKDSAIGFSRVPPRIDSGLYLGSGYFTAIQNLRKSEEEVAARRARVVWCAVGEQELRKCNQWSGLSEGSVTCSSASTTEDCIALVLKGEADAMSLDGGYVYTAGKCGLVPVLAENYKSQQSSDPDPNCVDRPVEGYLAVAVVRRSDTSLTWNSVKGKKSCHTAVDRTAGWNIPMGLLFNQTGSCKFDEYFSQSCAPGSDPRSNLCALCIGDEQGENKCVPNSNERYYGYTGAFRCLAENAGDVAFVKDVTVLQNTDGNNNEAWAKDLKLADFALLCLDGKRKPVTEARSCHLAMAPNHAVVSRMDKVERLKQVLLHQQAKFGRNGSDCPDKFCLFQSETKNLLFNDNTECLARLHGKTTYEKYLGPQYVAGITNLKKCSTSPLLEACEFLRK
Treatment of ocular inflammation (ocular inflammation score, FIG. 1): not obtained

— patent US20200046641A1, “LIPOSOMES FOR THE TREATMENT OF OCULAR DISEASES” (TDC Technology Dedicated to Care srl, priority 2018, published 2020)
